Data from patent US20030144209A1 (MASSACHUSETTS GERNERAL HOSPITAL, published 2003).
Blank lines part the entries; values can stand above or below the molecule they belong to. Square brackets hold non-standard residues; d marks the D form. Ends that are not written are not given here. * marks the point of attachment. Propionyl = CCC(=O)*

Experiments:
human PTH-1 receptor = biological target: T1, human PTH-1 receptor (human, UniProt Q03431 27-593); assay: cell-based or functional assay
T1 sequence (looked up): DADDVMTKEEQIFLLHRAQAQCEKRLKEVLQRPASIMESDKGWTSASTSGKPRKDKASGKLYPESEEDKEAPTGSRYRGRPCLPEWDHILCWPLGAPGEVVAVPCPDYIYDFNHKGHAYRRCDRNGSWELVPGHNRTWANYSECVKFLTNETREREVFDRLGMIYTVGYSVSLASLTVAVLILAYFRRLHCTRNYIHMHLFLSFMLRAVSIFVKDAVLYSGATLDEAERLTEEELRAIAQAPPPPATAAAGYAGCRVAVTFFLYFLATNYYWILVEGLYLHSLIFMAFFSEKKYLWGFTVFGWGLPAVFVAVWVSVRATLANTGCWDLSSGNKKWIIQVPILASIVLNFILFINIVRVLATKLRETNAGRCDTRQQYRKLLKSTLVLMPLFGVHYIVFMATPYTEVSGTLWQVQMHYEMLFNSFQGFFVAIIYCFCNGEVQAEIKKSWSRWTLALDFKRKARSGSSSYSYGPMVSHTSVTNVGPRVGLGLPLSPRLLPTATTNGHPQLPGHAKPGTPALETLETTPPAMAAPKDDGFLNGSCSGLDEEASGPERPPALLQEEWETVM

human PTH-2 receptor [1] = biological target: T2, human PTH-2 receptor (human, UniProt P49190 25-550); assay: cell-based or functional assay
human PTH-2 receptor [2] = biological target: T2, human PTH-2 receptor; assay: competitive displacement of 125I-[Nle8,21]rPTH(1-34) from HPR2-7 cells expressing the human PTH-2 receptor
Source text: Cell layers were washed three times before solubilization for determination of cell-associated radioactivity.

T2 sequence (P49190 25-550): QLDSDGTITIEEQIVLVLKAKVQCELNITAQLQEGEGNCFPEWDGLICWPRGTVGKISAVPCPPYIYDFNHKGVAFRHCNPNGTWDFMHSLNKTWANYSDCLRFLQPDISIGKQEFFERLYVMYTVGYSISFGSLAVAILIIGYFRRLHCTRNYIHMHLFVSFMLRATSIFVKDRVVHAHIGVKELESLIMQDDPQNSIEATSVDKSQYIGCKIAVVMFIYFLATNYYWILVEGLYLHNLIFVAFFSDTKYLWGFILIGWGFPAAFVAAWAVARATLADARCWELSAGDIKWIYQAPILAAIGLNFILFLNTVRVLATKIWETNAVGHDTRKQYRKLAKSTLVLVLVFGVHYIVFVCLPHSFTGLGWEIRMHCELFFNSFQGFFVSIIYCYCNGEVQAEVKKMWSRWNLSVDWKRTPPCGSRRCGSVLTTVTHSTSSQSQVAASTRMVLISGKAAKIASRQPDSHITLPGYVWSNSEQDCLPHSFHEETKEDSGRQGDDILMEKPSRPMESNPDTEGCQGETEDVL

phospholipase C (PLC) activity in HKRK-B7 cells at 1000 nM (% of the hPTH(1-34) maximum) (human PTH-1 receptor): 50
Molecule: [Gly^1]hPTH(1-34)NH2 (from UniProt P01270 32-65) (peptide)

AC activation relative to hPTH(1-34) (human PTH-1 receptor): ≤ 10 fold
AC activation relative to hPTH(1-34) (human PTH-2 receptor [1]): ≤ 10 fold
B1: hPTH(2-34) (peptide, UniProt P01270 33-65, looked up)
peptide: VSEIQLMHNLGKHLNSMERVEWLRKKLQDVHNF-NH2

More lines, now with the values behind:

B2: desamino-[Gly^1]hPTH(1-34)NH2 (peptide)
peptide: [Ac]VSEIQLMHNLGKHLNSMERVEWLRKKLQDVHNF-NH2
notes: Analog of human PTH(1-34) in which Ser1 is replaced by desamino glycine; also called [desaminoGly^1]; PTH(1-34); desamino-[Gly^1] peptide
fold decrease in AC activity relative to the amino-bearing peptide (human PTH-1 receptor): 10 fold
EC50 of AC activation, fold lower than hPTH(1-34) (human PTH-2 receptor [1]): 3 fold
EC50 of adenylyl cyclase (AC) activation (human PTH-2 receptor [1]): 10 nM
PLC stimulation relative to 1000 nM hPTH(1-34) (human PTH-2 receptor [1]): 50 % greater
maximal AC response relative to hPTH(1-34) (human PTH-2 receptor [1]): 2 fold
fold higher apparent binding affinity relative to hPTH(1-34) (human PTH-2 receptor [2]): 10 fold

B3: desamino-[Ala^1]hPTH(1-34)NH2 (peptide)
peptide: [Propionyl]VSEIQLMHNLGKHLNSMERVEWLRKKLQDVHNF-NH2
SMILES: CCC(=O)N[C@H](C(=O)N[C@@H](CO)C(=O)N[C@@H](CCC(=O)O)C(=O)N[C@H](C(=O)N[C@@H](CCC(N)=O)C(=O)N[C@@H](CC(C)C)C(=O)N[C@@H](CCSC)C(=O)N[C@@H](Cc1c[nH]cn1)C(=O)N[C@@H](CC(N)=O)C(=O)N[C@@H](CC(C)C)C(=O)NCC(=O)N[C@@H](CCCCN)C(=O)N[C@@H](Cc1c[nH]cn1)C(=O)N[C@@H](CC(C)C)C(=O)N[C@@H](CC(N)=O)C(=O)N[C@@H](CO)C(=O)N[C@@H](CCSC)C(=O)N[C@@H](CCC(=O)O)C(=O)N[C@@H](CCCNC(=N)N)C(=O)N[C@H](C(=O)N[C@@H](CCC(=O)O)C(=O)N[C@@H](Cc1c[nH]c2ccccc12)C(=O)N[C@@H](CC(C)C)C(=O)N[C@@H](CCCNC(=N)N)C(=O)N[C@@H](CCCCN)C(=O)N[C@@H](CCCCN)C(=O)N[C@@H](CC(C)C)C(=O)N[C@@H](CCC(N)=O)C(=O)N[C@@H](CC(=O)O)C(=O)N[C@H](C(=O)N[C@@H](Cc1c[nH]cn1)C(=O)N[C@@H](CC(N)=O)C(=O)N[C@@H](Cc1ccccc1)C(N)=O)C(C)C)C(C)C)[C@@H](C)CC)C(C)C
notes: Analog of human PTH(1-34) in which Ser1 is replaced by desamino alanine; also called [desamino Ala^1]PTH(1-34); desamino-[Ala^1] peptide
fold decrease in AC activity relative to the amino-bearing peptide (human PTH-1 receptor): 10 fold
EC50 of AC activation, fold lower than hPTH(1-34) (human PTH-2 receptor [1]): 3 fold
EC50 of adenylyl cyclase (AC) activation (human PTH-2 receptor [1]): 10 nM
PLC stimulation relative to 1000 nM hPTH(1-34) (human PTH-2 receptor [1]): 50 % greater
maximal AC response relative to hPTH(1-34) (human PTH-2 receptor [1]): 2 fold
fold higher apparent binding affinity relative to hPTH(1-34) (human PTH-2 receptor [2]): 10 fold
